Source: US20250197448A1, “CYCLOPEPTIBODIES AND USES THEREOF” (University of Rochester, priority 2022, published 2025)
Entries after “also recorded” stand apart in the source; their conditions may differ. Starred links: 1 amine or outer side, 2 acyl side, 3 side chain; linkers in the order of their positions; H or OH if unused. Positions of bridges follow the written chain, without caps; N, C: chain ends. Non-standard residues stand in square brackets, D forms with d. No end group written: not given here. pCaaF = p-(2-chloroacetamido)-phenylalanine, O=C(CCl)Nc1ccc(C[C@H](N[*:1])C(=O)[*:2])cc1

Legend:
streptavidin = target: T1, streptavidin (Streptomyces avidinii, UniProt P22629); test: in vitro streptavidin binding assay (streptavidin-coated plates, anti-FLAG HRP detection)
T1 construct: purchased Sigma-Aldrich
Source text: To prepare a cyclopeptibody capable of binding the protein streptavidin, a cyclic streptavidin-binding peptide previously discovered via phage display (Owens et al, ACS Cent Sci. (2020); 6(3):368-381) was genetically fused to the Fc domain of human IgG1 via a spacer (Entry 1, Table 1). The resulting cyclopeptibody (called Strep-m3-Tras-Fc) was expressed, purified, and characterized as described in Example 4. This construct was confirmed to contain the cyclic peptide constrained via O2beY/Cys thioether (i/i-8) linkage, where ‘i’ indicates the position of the non-canonical amino acid O2beY (also refereed to herein as p-2beF). […]
Streptavidin Binding Assay. […] After washing three times with wash buffer, 100 μL of 2.2 mM o-phenylenediamine dihydrochloride, 4.2 mM urea hydrogen peroxide, 100 mM dibasic sodium phosphate, and 50 mM sodium citrate, pH 5.0, were added to each well, followed by measurement of the absorbance at 450 nm after 10-20 min using a Tecan Infinite 1000 plate reader. Equilibrium dissociation constants (Kp) were determined by fitting the dose-response curves to a 1:1 binding isotherm equation via nonlinear regression. using SigmaPlot. Mean values and standard deviations were calculated from experiments performed in triplicate.

Sonic Hedgehog (Shh) = Sonic Hedgehog (Shh) (Homo sapiens, UniProt Q15465); test: in vitro Shh binding assay (plate-immobilized Shh)
Description: (§1) Streptavidin Binding Assay. For the streptavidin binding assays, streptavidin-coated plates (Sigma-Aldrich) were used. For the Keap1, Shh and PD-L1 binding assay, target protein was immobilized on microtiter plates by incubating 100 μL of a 4 μM protein solution in PBS buffer overnight at 4° C., followed by decanting the protein solution and blocking with 0.5% bovine serum albumin in PBS for 2 h at room temperature. After washing (3×150 μL of PBS with 0.05% Tween-20), each well was incubated with 100 μL of purified FLAG-tagged cyclopeptibody at varying concentrations for 1 hour at room temperature. After washing three times with wash buffer, each well was incubated with 100 μL of 1:2500 dilution of HRP-conjugate mouse anti-FLAG polyclonal antibody (Sigma-Aldrich) for 1 hour at room temperature. After washing three times with wash buffer, 100 μL of 2.2 mM o-phenylenediamine dihydrochloride, 4.2 mM urea hydrogen peroxide, 100 mM dibasic sodium phosphate, and 50 mM sodium citrate, pH 5.0, were added to each well, followed by measurement of the absorbance at 450 nm after 10-20 min using a Tecan Infinite 1000 plate reader. Equilibrium dissociation constants (Kp) were determined by fitting the dose-response curves to a 1:1 binding isotherm equation via nonlinear regression. using SigmaPlot. Mean values and standard deviations were calculated from experiments performed in triplicate. […]

PD-1/PD-L1 interaction = target: T2, PD-1/PD-L1 interaction (Homo sapiens, UniProt Q9NZQ7); test: PD-L1 competition assay with biotinylated PD-1; type: binding
T2 construct: poly-histidine (C); made in house; PD-1 co-expressed with BirA
Description: Next, we examined the ability of the cyclopeptibody cCLP003-Tras-Fc to inhibit the PD-1/PD-L1 interaction using a competition assay with recombinant biotinylated PD-1 (Bio-PD-1). Briefly, PD-L1 immobilized on a plate was incubated with Bio-PD-1 and varying concentrations of cCLP003-Tras-Fc or control Fc. The PD-L1-bound PD-1 was then quantified colorimetrically (OD450) using horseradish peroxidase (HRP)-conjugated streptavidin.
PD-L1 Competition Assay. PD-L1 was immobilized on microtiter plates as described above. followed by decanting the protein solution and blocking with 0.5% bovine serum albumin in PBS for 2 h at room temperature. After washing, each well was incubated with 100 μL of serial dilutions of cCLP003-Tras-Fc-His for 1 hour at room temperature. Biotinylated PD-1 (500 nM) was added and incubated for 1 h at room temperature. After washing, the bound PD-1 was quantified by means of HRP-conjugate Streptavidin and colorimetric assay as described above. The inhibitory constant (IC50) was determined by fitting the dose-response curves to a 4-parameter equation via nonlinear regression using SigmaPlot. Mean values and standard deviations were calculated from experiments performed in triplicate.

[1] = target: T3, PD-L1 receptor on MDA-MB-231 cells (Homo sapiens, UniProt Q9NZQ7); test: flow cytometry of MDA-MB-231 cells, PD-L1 labeling with FITC anti-human IgG Fc; type: cell-based; conditions: for staining / labeling of PD-L1 receptors on MDA-MB-231 cells (in words): concentration not given at the place
T3 construct: known to express high levels of PD-L1 on their surface; endogenous in cells; host or cells: MDA-MB-231
Description: The cells were then incubated with fluorescein-conjugated anti-human IgG Fc antibody and analyzed by flow cytometry. The same experiment was carried out in parallel using commercially available anti-PD-L1 antibody as positive control and various negative controls.
Flow Cytometry Analysis. […] When confluent, media was aspirated, cells were washed once with 1×DPBS (no calcium, no magnesium) (Gibco). Adherent cells were detached from the petri dish with 1 mL of accutase (Gibco) pre-warmed to 37° C., followed by incubated for 5 min at 37° C. Cells were spun down using centrifugation. Supernatant was removed and cells were washed three times with staining buffer (1×PBS with 0.5% BSA). Cells were resuspended in Eppendorf tubes in 100 μL PBS at a concentration of 107cells per mL. […] Eppendorf tubes were then placed on the platform shaker for gently shaking for 1 hour at room temperature. After 1 hour, cells were spun down using centrifugation, then supernatant was removed. […] Cells were washed as described above, then resuspended in 400 μL staining buffer. […] The cells of interest were gated using Forward and Side scatter (FSC/SSC). 10,000 singlet events were collected for each specimen.

[2] = target: T4, integrin αvβ3 on MDA-MB-231 cells (Homo sapiens, UniProt P05106+P06756); test: flow cytometry of MDA-MB-231 cells, integrin receptor labeling; type: cell-based; conditions: FITC anti-IgG1 Fc detection
T4 construct: known to express high levels of integrin αvβ3 on their surface; endogenous in cells; host or cells: MDA-MB-231
Description: Flow Cytometry Analysis. Cell line MDA-MB-231 was grown in culture to reach confluency. When confluent, media was aspirated, cells were washed once with 1×DPBS (no calcium, no magnesium) (Gibco). Adherent cells were detached from the petri dish with 1 mL of accutase (Gibco) pre-warmed to 37° C., followed by incubated for 5 min at 37° C. Cells were spun down using centrifugation. Supernatant was removed and cells were washed three times with staining buffer (1×PBS with 0.5% BSA). Cells were resuspended in Eppendorf tubes in 100 μL PBS at a concentration of […]. Cyclopeptibodies or Human anti-PD-L1 antibody (1 μg) (R&D Systems, MAB10355) in staining buffer were then added to the tubes with a concentration of 1.5 μM in 200 μL. Eppendorf tubes were then placed on the platform shaker for gently shaking for 1 hour at room temperature. After 1 hour, cells were spun down using centrifugation, then supernatant was removed. After washing three times, cells were resuspended in 200 μL of Fluorescein (FITC) AffiniPure Goat Anti-Human IgG with working concentration of 30 μg/mL (Jackson ImmunoResearch, 109-095-098), incubated in the dark for 30 min at room temperature. Cells were washed as described above, then resuspended in 400 μL staining buffer. Then cells were analyzed on a BD FACS Accuri C6^+ using a filter of 533/30. The cells of interest were gated using Forward and Side scatter (FSC/SSC). 10,000 singlet events were collected for each specimen.
After purification as described in Example 2, these cyclopeptibodies were used to treat breast cancer cells (MDA-MB-231), which are known to express high levels of integrin αvβ3 on their surface. The cyclopeptibody treated cells were then analyzed by flow cytometry using a procedure similar to that described for the PD-L1-targeting cyclopeptibodies in Example 9.

PD-L1 = target: T5, PD-L1 (Homo sapiens, UniProt Q9NZQ7); test: in vitro PD-L1 binding assay (plate-immobilized PD-L1); conditions: Q6 vs. Q12 spacer
T5 construct: poly-histidine (C); made in house
Description: as §1

[3] = target: T6, PD-L1 expressed on the surface of MDA-MB-231 cells (Homo sapiens, UniProt Q9NZQ7); test: confocal microscopy imaging of MDA-MB-231 cells; type: cell-based; conditions: anti-Fc-FITC staining
T6 construct: known to express high levels of PD-L1 on their surface; endogenous in cells; host or cells: MDA-MB-231
Description: Cyclopeptibodies can be applied for detection and imaging of a target protein in cells and other biological systems. To illustrate this aspect of the invention, breast cancer cells MDA-MB-231 cells were treated with PD-L1 targeting cRK10 (pCaaF)-Tras-Fc. MDA-MB-231 cells are known to express high levels of PD-L1 on the cell membrane. After treatment with cRK10 (pCaaF)-Tras-Fc, the cyclopeptibody bound to the surface PD-L1 was labeled with fluorescein-conjugated anti-human Fc antibody (‘anti-Fc-FITC’) and cells were imaged using confocal microscopy.

T3 sequence (Q9NZQ7 19-290): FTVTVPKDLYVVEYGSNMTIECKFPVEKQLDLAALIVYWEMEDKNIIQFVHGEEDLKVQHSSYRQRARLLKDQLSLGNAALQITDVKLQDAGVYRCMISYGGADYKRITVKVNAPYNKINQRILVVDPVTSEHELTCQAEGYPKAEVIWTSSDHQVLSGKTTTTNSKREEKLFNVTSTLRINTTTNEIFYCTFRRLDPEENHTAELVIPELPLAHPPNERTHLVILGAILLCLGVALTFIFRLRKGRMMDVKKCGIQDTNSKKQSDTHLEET
T4 sequence (P06756 31-889 limits assumed): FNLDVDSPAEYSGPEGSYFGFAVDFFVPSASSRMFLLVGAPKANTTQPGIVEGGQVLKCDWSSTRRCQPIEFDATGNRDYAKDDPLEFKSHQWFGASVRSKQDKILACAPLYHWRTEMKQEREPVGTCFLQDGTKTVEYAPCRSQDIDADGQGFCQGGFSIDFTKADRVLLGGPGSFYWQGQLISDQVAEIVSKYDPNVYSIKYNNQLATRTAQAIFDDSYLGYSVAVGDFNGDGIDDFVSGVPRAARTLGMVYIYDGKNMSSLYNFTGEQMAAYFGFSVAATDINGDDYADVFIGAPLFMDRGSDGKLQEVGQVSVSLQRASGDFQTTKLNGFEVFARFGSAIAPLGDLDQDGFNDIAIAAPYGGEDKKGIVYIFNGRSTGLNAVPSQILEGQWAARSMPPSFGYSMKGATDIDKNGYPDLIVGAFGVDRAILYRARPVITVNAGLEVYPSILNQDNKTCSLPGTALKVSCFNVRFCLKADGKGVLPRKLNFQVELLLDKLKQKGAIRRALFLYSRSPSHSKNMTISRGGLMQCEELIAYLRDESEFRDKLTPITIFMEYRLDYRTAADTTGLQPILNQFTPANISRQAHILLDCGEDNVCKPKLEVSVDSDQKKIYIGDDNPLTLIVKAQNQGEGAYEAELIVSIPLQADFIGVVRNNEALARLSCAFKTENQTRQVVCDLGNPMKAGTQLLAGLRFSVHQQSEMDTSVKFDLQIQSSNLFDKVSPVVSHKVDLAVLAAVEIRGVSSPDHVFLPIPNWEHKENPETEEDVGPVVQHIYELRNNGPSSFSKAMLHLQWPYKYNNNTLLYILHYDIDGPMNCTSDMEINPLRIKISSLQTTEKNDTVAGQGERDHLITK
T4 sequence (P06756 891-1048 partner limits assumed): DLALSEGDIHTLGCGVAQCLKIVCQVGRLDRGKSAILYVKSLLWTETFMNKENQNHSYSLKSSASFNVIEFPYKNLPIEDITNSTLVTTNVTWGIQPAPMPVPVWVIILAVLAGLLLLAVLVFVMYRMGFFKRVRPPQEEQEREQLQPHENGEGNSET
T4 sequence (P05106 27-788): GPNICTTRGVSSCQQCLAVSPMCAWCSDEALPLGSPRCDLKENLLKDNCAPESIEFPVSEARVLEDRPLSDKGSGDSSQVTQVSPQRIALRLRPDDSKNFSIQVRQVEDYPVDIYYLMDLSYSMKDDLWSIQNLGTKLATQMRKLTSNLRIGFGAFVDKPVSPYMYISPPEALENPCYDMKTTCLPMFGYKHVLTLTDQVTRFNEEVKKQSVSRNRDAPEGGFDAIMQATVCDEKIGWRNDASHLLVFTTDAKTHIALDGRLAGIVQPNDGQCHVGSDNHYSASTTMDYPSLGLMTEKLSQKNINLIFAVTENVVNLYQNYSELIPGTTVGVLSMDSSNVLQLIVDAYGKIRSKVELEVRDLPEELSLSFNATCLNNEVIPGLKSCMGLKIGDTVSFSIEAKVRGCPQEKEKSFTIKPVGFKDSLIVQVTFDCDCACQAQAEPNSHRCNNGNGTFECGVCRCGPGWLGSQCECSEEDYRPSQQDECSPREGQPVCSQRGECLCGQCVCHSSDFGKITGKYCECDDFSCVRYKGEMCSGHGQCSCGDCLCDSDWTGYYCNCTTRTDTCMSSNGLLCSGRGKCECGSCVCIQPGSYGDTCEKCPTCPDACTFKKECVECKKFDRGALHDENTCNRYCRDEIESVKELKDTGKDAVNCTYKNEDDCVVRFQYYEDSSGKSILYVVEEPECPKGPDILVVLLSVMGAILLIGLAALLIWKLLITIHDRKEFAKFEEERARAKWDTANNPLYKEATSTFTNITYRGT
T6 sequence (Q9NZQ7 19-290): as the sequence (Q9NZQ7 19-290) above
T5 sequence (Q9NZQ7 19-290): as above
T1 sequence (P22629 25-183): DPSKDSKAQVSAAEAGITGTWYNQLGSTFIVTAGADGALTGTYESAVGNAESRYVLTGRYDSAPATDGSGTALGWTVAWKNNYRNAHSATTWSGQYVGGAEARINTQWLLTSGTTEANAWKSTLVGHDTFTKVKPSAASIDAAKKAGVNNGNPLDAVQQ
T2 sequence (Q9NZQ7 19-238 limits assumed): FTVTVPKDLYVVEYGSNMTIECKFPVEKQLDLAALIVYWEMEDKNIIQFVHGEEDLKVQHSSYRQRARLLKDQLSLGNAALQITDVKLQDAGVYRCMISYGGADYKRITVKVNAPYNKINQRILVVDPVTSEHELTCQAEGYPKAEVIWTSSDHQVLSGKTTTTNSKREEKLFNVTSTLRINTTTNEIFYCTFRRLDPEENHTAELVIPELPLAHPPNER

In the case of “Fc domain: human IgG1 Fc domain alone, negative control [reference compound]”, the “streptavidin binding (in words)” value (streptavidin) is reported as “no binding”, the “Shh binding (in words)” value (Sonic Hedgehog (Shh)) is reported as “no significant binding below 500 nM” and the “inhibition of PD-1/PD-L1 interaction (in words)” value (PD-1/PD-L1 interaction) is reported as “did not exhibit significant inhibitory activity”. The “staining / labeling of PD-L1 receptors on MDA-MB-231 cells (in words)” value (“staining / labeling of PD-L1 receptors” below) [1] was “negligible non-specific interaction”, the “staining / labeling of PD-L1 receptors” value ([1]; listed as human IgG1 Fc domain) was “negligible staining” and the “labeling of integrin receptors on MDA-MB-231 cells (in words)” value [2] was “minimal or significantly reduced staining; also recorded: negligible non-specific interaction”.

“FLAG-(GS)2-TYLCGAISLAZKAQIKESL-(Q)6-(Fc)^1-H6 (DYKDDDDKGSGSTYLCGAISLA[pCaaF]KAQIKESLQQQQQQ-{Fc-H6}; thioether 16-23) [cRK10-Tras-Fc]” was tested, and the “higher PD-L1 binding affinity compared to FLAG-cRK10-Q12-Tras-Fc-His” value (PD-L1) was “six-fold higher”, the “median fluorescence intensity (MFI) relative to positive control” value ([1]; MDA-MB-231 cells, 0.09 mg/mL) was “comparable median fluorescence intensity (MFI) to that of the positive control anti-PD-L1 antibody” and the “staining / labeling of PD-L1 receptors” value [1] was “selective labeling of PD-L1 receptors”. For the same substance, the “recognition of surface PD-L1 by fluorescent imaging” value [3] was “able to efficiently recognize PD-L1”.
